Values of other authors, collected in article PMC4860950.

Key:
CD2 (Mus musculus) = CD2 (Mus musculus) (UniProt P08920)
CD2 (Homo sapiens) = CD2 (Homo sapiens) (UniProt P06729)
CD244 (Homo sapiens) = CD244 (Homo sapiens) (UniProt Q9BZW8)
Sequence of UniProt Q9BZW8 (Q9BZW8 22-229): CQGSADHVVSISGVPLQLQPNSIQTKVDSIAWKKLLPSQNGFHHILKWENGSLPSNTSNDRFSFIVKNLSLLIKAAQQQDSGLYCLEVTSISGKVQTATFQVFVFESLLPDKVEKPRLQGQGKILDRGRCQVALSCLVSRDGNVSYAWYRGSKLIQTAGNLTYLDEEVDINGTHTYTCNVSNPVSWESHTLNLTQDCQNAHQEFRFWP

Sequence of UniProt P06729 (P06729 25-209): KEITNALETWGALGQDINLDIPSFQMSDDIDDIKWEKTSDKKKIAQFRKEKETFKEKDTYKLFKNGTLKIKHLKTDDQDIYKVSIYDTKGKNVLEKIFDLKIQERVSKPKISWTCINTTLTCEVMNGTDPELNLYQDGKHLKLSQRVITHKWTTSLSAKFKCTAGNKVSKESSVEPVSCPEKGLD
Sequence of UniProt P08920 (P08920 23-203): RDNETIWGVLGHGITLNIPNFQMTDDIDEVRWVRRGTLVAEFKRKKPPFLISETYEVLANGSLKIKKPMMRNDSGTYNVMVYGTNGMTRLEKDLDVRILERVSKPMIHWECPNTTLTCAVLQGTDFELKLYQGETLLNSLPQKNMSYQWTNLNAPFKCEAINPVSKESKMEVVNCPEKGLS

Row | Kd (CD2 (Mus musculus)) [µM] | Kd (CD2 (Homo sapiens)) [µM] | Kd (CD244 (Homo sapiens)) [µM] | Substance
1 | 90 | – | – | CD48 (from UniProt P18181)
2 | – | 100 | 8 | CD48 (from UniProt P09326)
